These results are taken from article PMC5127643, “Dynamic control of Hsf1 during heat shock by a chaperone switch and phosphorylation” (eLife, 2016).

Settings in all cases: both partners purified
The target of one assay is T1, 3xFLAG-Hsf1 (S. cerevisiae, UniProt P10961 1-833).
T1 construct: The text prints 3xFLAG-Hsf1 and the legend prints rHsf1-3xFLAG, so the tag end is left open; also called rHsf1-3xFLAG; rHsf1; source: construct not described in the methods
T1 sequence (looked up): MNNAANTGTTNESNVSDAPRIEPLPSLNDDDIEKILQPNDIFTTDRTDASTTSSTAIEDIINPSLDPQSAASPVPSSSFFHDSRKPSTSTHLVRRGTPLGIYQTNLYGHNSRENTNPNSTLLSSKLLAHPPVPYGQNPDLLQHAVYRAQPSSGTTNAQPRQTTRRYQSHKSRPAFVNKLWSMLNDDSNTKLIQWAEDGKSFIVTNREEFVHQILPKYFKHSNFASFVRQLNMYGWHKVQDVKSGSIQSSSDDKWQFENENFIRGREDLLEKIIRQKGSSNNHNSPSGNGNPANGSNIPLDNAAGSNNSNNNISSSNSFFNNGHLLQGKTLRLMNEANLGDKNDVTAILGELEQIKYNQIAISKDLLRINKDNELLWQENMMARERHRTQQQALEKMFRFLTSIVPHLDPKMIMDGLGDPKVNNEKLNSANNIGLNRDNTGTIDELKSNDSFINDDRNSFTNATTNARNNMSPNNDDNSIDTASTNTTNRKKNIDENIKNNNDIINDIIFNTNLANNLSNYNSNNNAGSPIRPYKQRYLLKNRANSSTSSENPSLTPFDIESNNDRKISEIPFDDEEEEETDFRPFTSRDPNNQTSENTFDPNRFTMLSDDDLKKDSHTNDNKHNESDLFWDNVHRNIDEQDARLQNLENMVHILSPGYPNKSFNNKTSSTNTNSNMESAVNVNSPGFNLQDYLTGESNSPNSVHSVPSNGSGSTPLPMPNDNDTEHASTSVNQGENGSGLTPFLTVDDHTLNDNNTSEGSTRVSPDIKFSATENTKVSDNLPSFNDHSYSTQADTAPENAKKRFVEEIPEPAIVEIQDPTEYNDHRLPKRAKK
The assay can be described thus: co-IP; anti-FLAG IP of recombinant proteins with rHsf1-3xFLAG as bait, Western blot anti-HIS for rSsa2; IP buffer alone or with 1 mM ATP. (A western blot detects proteins with antibodies after separation by electrophoresis.)

Another assay addresses T2, Aβ42 peptide (UniProt P05067 672-713).
T2 construct: also called hydrophobic peptide
The assay can be described thus: co-IP; anti-FLAG IP of recombinant proteins with rHsf1-3xFLAG as bait, in the presence of five-fold molar excess (25 µM) of Aβ42 peptide as competitor.

In assay [1] the target is T3, Hsf1-6xHIS phosphorylated in vitro by casein kinase II (S. cerevisiae, UniProt P10961 1-833, phosphorylated by casein kinase II (mobility shift); sites not stated).
T3 construct: Full-length wild type HSF1 cloned into pET32b with a C-terminal 6x-HIS tag; also called rHsf1 pre-incubated with ATP and active CKII; phosphorylated Hsf1; source: E. coli BL21(DE3), purified (Ni-NTA agarose), then phosphorylated in vitro with casein kinase II (NEB); not shown: 6xHIS, C-terminal, kept
T3 sequence (looked up): T1 sequence (looked up)
The assay can be described thus: co-IP; anti-FLAG IP of recombinant proteins with 3xFLAG-rSsa2 as bait; rHsf1 pre-incubated with ATP alone, ATP and active CKII, or ATP and boiled CKII; Western blot anti-HIS for rHsf1.

Another assay concerns the target T4, Hsf1-6xHIS (S. cerevisiae, UniProt P10961 1-833).
T4 construct: Full-length wild type HSF1 cloned into pET32b with a C-terminal 6x-HIS tag; pET32b normally adds N-terminal thioredoxin, His and S tags; Plasmids are in Supplementary file 2; also called rHsf1; recombinant Hsf1; source: E. coli BL21(DE3), purified (Ni-NTA agarose, imidazole elution); not shown: 6xHIS, C-terminal, kept
T4 sequence (looked up): T1 sequence (looked up)
The assay is described as above.

T2 sequence (P05067 672-713): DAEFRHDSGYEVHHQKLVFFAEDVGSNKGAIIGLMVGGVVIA

B1: recombinant Ssa2 (HIS-tagged, tags reversed) (natural protein)
chain: not shown
notes: also called rSsa2; source: construct not described in the methods
For the molecule B1, the binding result in the assay with 3xFLAG-Hsf1 and with Aβ42 peptide was “binds” throughout.

B2: 6xHIS-3xFLAG-Ssa2 (natural protein)
chain: not shown
notes: Full length SSA2 cloned into pET32b with an N-terminal 6xHIS-3xFLAG tag; pET32b normally adds N-terminal thioredoxin, His and S tags; Plasmids are in Supplementary file 2; also called FLAG-rSsa2; 3xFLAG-rSsa2; source: E. coli BL21(DE3), purified (Ni-NTA agarose, imidazole elution); not shown: 6xHIS, N-terminal, kept; 3xFLAG, N-terminal, kept
As to B2, the binding result (in assay [1]; in the assay with Hsf1-6xHIS) was “binds” each time.
